According to US10221225B2, “Peptides and combination of peptides and scaffolds thereof for use in immunotherapy against colorectal carcinoma (CRC) and other cancers” (immatics biotechnologies GmbH, priority 2015, dated 2019):

Biological target: HLA-A*02:01 (Homo sapiens, UniProt P04439, D140Y/D185E/D98H/E176V/E277Q/G131W/G231S/I119V/I121R/I166T/I218V/L300P/L318F/N151K/N90K/P208A/P217A/Q86G/Q94H/R138H/R169H/T345S)
Test: MHC binding assay (UV-ligand exchange, beta2m ELISA, peptide exchange yield)
Details: MHC class I binding score; binding to HLA-A*02:01 ranged by peptide exchange yield (UV-ligand exchange, β2m ELISA)
Description: Candidate peptides for T cell based therapies according to the present invention were further tested for their MHC binding capacity (affinity). The individual peptide-MHC complexes were produced by UV-ligand exchange, where a UV-sensitive peptide is cleaved upon UV-irradiation, and exchanged with the peptide of interest as analyzed. Only peptide candidates that can effectively bind and stabilize the peptide-receptive MHC molecules prevent dissociation of the MHC complexes. To determine the yield of the exchange reaction, an ELISA was performed based on the detection of the light chain (β2m) of stabilized MHC complexes. The assay was performed as generally described in Rodenko et al. (Rodenko et al., 2006).
96 well MAXISorp plates (NUNC) were coated over night with 2 ug/ml streptavidin in PBS at room temperature, washed 4× and blocked for 1 h at 37° C. in 2% BSA containing blocking buffer. Refolded HLA-A*02:01/MLA-001 monomers served as standards, covering the range of 15-500 ng/ml. Peptide-MHC monomers of the UV-exchange reaction were diluted 100 fold in blocking buffer. Samples were incubated for 1 h at 37° C., washed four times, incubated with 2 ug/ml HRP conjugated anti-β2m for 1 h at 37° C., washed again and detected with TMB solution that is stopped with […]. Absorption was measured at 450 nm. Candidate peptides that show a high exchange yield (preferably higher than 50%, most preferred higher than 75%) are generally preferred for a generation and production of antibodies or fragments thereof, and/or T cell receptors or fragments thereof, as they show sufficient avidity to the MHC molecules and prevent dissociation of the MHC complexes.

| Peptide exchange | Substance |
| --- | --- |
| ″++″ (≥20% = ++) | 58 (AMADKMDMSL; listed as Homo sapiens) [compound 58] |
| ″++″ (≥20% = ++) | 60 (VLDEDEPRFL; listed as Homo sapiens) [compound 60] |
| ″+++″ (≥50 = +++) | 61 (KLLKLFQGV; listed as Homo sapiens) [compound 61] |
| ″++″ (≥20% = ++) | 62 (YLAPENGYL; listed as Homo sapiens) [compound 62] |
| ″++″ (≥20% = ++) | 63 (KLFSILSTV; listed as Homo sapiens) [compound 63] |
| ″++″ (≥20% = ++) | 66 (GLDDGPDFL; listed as Homo sapiens) [compound 66] |
| ″+++″ (≥50 = +++) | 67 (SLNDLEKDVMLL; listed as Homo sapiens) [compound 67] |
| ″+++″ (≥50 = +++) | 68 (SILQFVHMV; listed as Homo sapiens) [compound 68] |
| ″++″ (≥20% = ++) | 69 (GMLNEAEGKAIKL; listed as Homo sapiens) [compound 69] |
| ″+++″ (≥50 = +++) | 70 (MISELEVRL; listed as Homo sapiens) [compound 70] |
| ″+++″ (≥50 = +++) | 71 (RLWTEIPTAI; listed as Homo sapiens) [compound 71] |
| ″+++″ (≥50 = +++) | 72 (YLLDYPNNLL; listed as Homo sapiens) [compound 72] |
| ″+++″ (≥50 = +++) | 73 (YLFDIAVSM; listed as Homo sapiens) [compound 73] |
| ″+++″ (≥50 = +++) | 74 (YLMGFLHAV; listed as Homo sapiens) [compound 74] |
| ″++″ (≥20% = ++) | 75 (EMIENIQSV; listed as Homo sapiens) [compound 75] |
| ″+++″ (≥50 = +++) | 76 (YLIGEKQHYL; listed as Homo sapiens) [compound 76] |
| ″++″ (≥20% = ++) | 77 (SLLKRDFGA; listed as Homo sapiens) [compound 77] |
| ″++″ (≥20% = ++) | 78 (ALDPELLLL; listed as Homo sapiens) [compound 78] |
| ″++″ (≥20% = ++) | 79 (SLAADQLLKL; listed as Homo sapiens) [compound 79] |
| ″++″ (≥20% = ++) | 80 (QVDEVVDIMRV; listed as Homo sapiens) [compound 80] |
| ″+++″ (≥50 = +++) | 81 (ALLSQQTHL; listed as Homo sapiens) [compound 81] |
| ″++″ (≥20% = ++) | 82 (QLYEEPDTKL; listed as Homo sapiens) [compound 82] |
| ″+++″ (≥50 = +++) | 83 (LTIEDGIFEV; listed as Homo sapiens) [compound 83] |
| ″+++″ (≥50 = +++) | 84 (SMVEDITGLRL; listed as Homo sapiens) [compound 84] |

| Peptide exchange | Substance |
| --- | --- |
| ″++″ (≥20% = ++) | 85 (ILHDINSDGVL; listed as Homo sapiens) [compound 85] |
| ″++″ (≥20% = ++) | 86 (KVFPGKISV; listed as Homo sapiens) [compound 86] |
| ″+++″ (≥50 = +++) | 87 (LLFDAPDLRL; listed as Homo sapiens) [compound 87] |
| ″++++″ (≥75% = ++++) | 88 (KLDIKVETV; listed as Homo sapiens) [compound 88] |
| ″+++″ (≥50 = +++) | 89 (SLIEYEFRV; listed as Homo sapiens) [compound 89] |
| ″+++″ (≥50 = +++) | 90 (GLLKPGLNVVL; listed as Homo sapiens) [compound 90] |
| ″+++″ (≥50 = +++) | 91 (TVDVATPSV; listed as Homo sapiens) [compound 91] |
| ″+++″ (≥50 = +++) | 92 (WIDDTSAFV; listed as Homo sapiens) [compound 92] |
| ″++++″ (≥75% = ++++) | 93 (SLQELRLLL; listed as Homo sapiens) [compound 93] |
| ″+++″ (≥50 = +++) | 94 (KSMDIVLTV; listed as Homo sapiens) [compound 94] |
| ″++++″ (≥75% = ++++) | 95 (AILDAHIEV; listed as Homo sapiens) [compound 95] |
| ″++″ (≥20% = ++) | 96 (KLYSRLVYV; listed as Homo sapiens) [compound 96] |
| ″++″ (≥20% = ++) | 97 (ALWWGVVTV; listed as Homo sapiens) [compound 97] |
| ″++″ (≥20% = ++) | 98 (AMNGKSFSV; listed as Homo sapiens) [compound 98] |
| ″+++″ (≥50 = +++) | 99 (KLLEVDLDTV; listed as Homo sapiens) [compound 99] |
| ″+++″ (≥50 = +++) | 100 (SLDDFLATA; listed as Homo sapiens) [compound 100] |
| ″+++″ (≥50 = +++) | 101 (GLSEGHTFQV; listed as Homo sapiens) [compound 101] |
| ″+++″ (≥50 = +++) | 102 (KILVSLIEV; listed as Homo sapiens) [compound 102] |
| ″++″ (≥20% = ++) | 103 (FLFGYPKRL; listed as Homo sapiens) [compound 103] |
| ″+++″ (≥50 = +++) | 104 (ILLTIKDDTIYL; listed as Homo sapiens) [compound 104] |
| ″+++″ (≥50 = +++) | 105 (YALDLSTFL; listed as Homo sapiens) [compound 105] |
| ″+++″ (≥50 = +++) | 106 (SLISEKILL; listed as Homo sapiens) [compound 106] |
| ″+++″ (≥50 = +++) | 107 (ALLGGGPYML; listed as Homo sapiens) [compound 107] |
| ″+++″ (≥50 = +++) | 108 (SLAELVPGVGGI; listed as Homo sapiens) [compound 108] |

| Peptide exchange | Substance |
| --- | --- |
| ″++″ (≥20% = ++) | 109 (ALDGDQMEL; listed as Homo sapiens) [compound 109] |
| ″+++″ (≥50 = +++) | 110 (LLGELPRLLLL; listed as Homo sapiens) [compound 110] |
| ″++″ (≥20% = ++) | 112 (KLGQVLIYL; listed as Homo sapiens) [compound 112] |
| ″++″ (≥20% = ++) | 113 (ILYDLQQNL; listed as Homo sapiens) [compound 113] |
| ″+″ (≥10% = +) | 114 (TAVGHALVL; listed as Homo sapiens) [compound 114] |
| ″+++″ (≥50 = +++) | 115 (SLFDVSHML; listed as Homo sapiens) [compound 115] |
| ″++″ (≥20% = ++) | 116 (LVYQFVHPI; listed as Homo sapiens) [compound 116] |
| ″++″ (≥20% = ++) | 117 (TLQPVDNSTISL; listed as Homo sapiens) [compound 117] |
| ″+++″ (≥50 = +++) | 118 (LLADLKTMV; listed as Homo sapiens) [compound 118] |
| ″++″ (≥20% = ++) | 119 (ILYQTVTGL; listed as Homo sapiens) [compound 119] |
| ″++″ (≥20% = ++) | 120 (VLYEGVDEV; listed as Homo sapiens) [compound 120] |
| ″+++″ (≥50 = +++) | 121 (SLAPNIISQL; listed as Homo sapiens) [compound 121] |
| ″+++″ (≥50 = +++) | 122 (SLMGMVLKL; listed as Homo sapiens) [compound 122] |
| ″++++″ (≥75% = ++++) | 125 (KLGDFGLLVEL; listed as Homo sapiens) [compound 125] |
| ″+++″ (≥50 = +++) | 126 (TLAKYLMEL; listed as Homo sapiens) [compound 126] |
| ″++″ (≥20% = ++) | 128 (MLDDRAYLV; listed as Homo sapiens) [compound 128] |
| ″+++″ (≥50 = +++) | 129 (VLIDVLKEL; listed as Homo sapiens) [compound 129] |
| ″++″ (≥20% = ++) | 130 (GLGGSQLIDTHL; listed as Homo sapiens) [compound 130] |
| ″++″ (≥20% = ++) | 131 (KLLDVVHPA; listed as Homo sapiens) [compound 131] |
| ″++++″ (≥75% = ++++) | 134 (GVAGGSILKGV; listed as Homo sapiens) [compound 134] |
| ″++″ (≥20% = ++) | 135 (KLQEEIPVL; listed as Homo sapiens) [compound 135] |
| ″+++″ (≥50 = +++) | 137 (QLTEIKPLL; listed as Homo sapiens) [compound 137] |
| ″+++″ (≥50 = +++) | 138 (KQFEGTVEI; listed as Homo sapiens) [compound 138] |
| ″+++″ (≥50 = +++) | 139 (VLLNEILEQV; listed as Homo sapiens) [compound 139] |
